Paper PMC5676948, “Inactivation mechanism of N61S mutant of human FMO3 towards trimethylamine” (Scientific Reports, 2017)

How the values were obtained:
[1] = molecular target: T1, human flavin-containing monooxygenase 3 (hFMO3), wild type (Homo sapiens, UniProt P31513); assay: ITC (supported by CD and DSC thermal shifts and trypsin protection); format: binding
T1 construct: gene FMO3
T1 sequence (P31513 2-532): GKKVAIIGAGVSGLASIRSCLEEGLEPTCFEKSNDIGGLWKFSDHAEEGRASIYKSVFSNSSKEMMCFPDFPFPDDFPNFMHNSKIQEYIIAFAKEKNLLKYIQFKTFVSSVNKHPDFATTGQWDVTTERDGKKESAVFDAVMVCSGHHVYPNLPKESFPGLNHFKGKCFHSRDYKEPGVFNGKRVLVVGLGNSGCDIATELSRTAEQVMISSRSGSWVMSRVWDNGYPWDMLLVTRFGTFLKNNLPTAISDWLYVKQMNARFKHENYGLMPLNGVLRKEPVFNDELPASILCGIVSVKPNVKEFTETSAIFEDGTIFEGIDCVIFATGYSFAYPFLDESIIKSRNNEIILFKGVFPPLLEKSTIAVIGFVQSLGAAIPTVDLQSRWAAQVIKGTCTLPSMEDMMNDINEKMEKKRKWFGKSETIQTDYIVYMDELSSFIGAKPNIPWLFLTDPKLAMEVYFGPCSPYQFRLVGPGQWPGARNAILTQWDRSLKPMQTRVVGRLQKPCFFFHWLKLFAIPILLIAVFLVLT

[2] = molecular target: T2, human flavin-containing monooxygenase 3 (hFMO3), N61S variant (Homo sapiens, UniProt P31513, N61S); assay: stopped-flow anaerobic FAD reduction at […] nm, Kd from kobs vs [NADPH]; format: biochemical; details: read-out: Reduction / K d,NADPH /
T2 construct: gene FMO3
T2 sequence (P31513 2-532 N61S): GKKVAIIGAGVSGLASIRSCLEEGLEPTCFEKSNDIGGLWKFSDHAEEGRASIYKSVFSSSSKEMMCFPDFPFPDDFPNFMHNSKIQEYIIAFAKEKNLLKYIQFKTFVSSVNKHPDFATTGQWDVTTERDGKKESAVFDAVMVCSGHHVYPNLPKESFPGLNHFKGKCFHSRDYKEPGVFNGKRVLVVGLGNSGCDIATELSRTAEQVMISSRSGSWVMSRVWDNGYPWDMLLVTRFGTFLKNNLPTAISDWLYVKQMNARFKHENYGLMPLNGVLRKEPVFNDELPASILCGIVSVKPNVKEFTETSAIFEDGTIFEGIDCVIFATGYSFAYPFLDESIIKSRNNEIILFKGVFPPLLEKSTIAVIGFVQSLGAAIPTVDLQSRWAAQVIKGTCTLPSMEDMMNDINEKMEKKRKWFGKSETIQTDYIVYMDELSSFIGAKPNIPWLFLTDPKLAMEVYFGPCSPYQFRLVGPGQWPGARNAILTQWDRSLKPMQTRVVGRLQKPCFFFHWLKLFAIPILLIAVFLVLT

[3] = molecular target: T1, human flavin-containing monooxygenase 3 (hFMO3), wild type; assay: as above; format: biochemical; details: read-out: Reduction / K d,NADPH /
purified protein [4] = substrate: Cn1cc[nH]c1=S; assay: purified protein; details: FAD, NADPH
purified protein [5] = substrate: CN(C)CCCOc1nn(Cc2ccccc2)c2ccccc12; assay: purified protein; details: FAD, NADPH
purified protein [6] = substrate: CC/C(=C(\c1ccccc1)c1ccc(OCCN(C)C)cc1)c1ccccc1; assay: purified protein; details: FAD, NADPH
purified protein [7] = substrate: CN(C)C; assay: purified protein; format: biochemical, Homo sapiens; details: FAD, NADPH

In the case of `NC(=O)c1ccc[n+]([C@@H]2O[C@H](COP(=O)(O)OP(=O)(O)OC[C@H]3O[C@@H](n4cnc5c(N)ncnc54)[C@H](OP(=O)(O)O)[C@@H]3O)[C@@H](O)[C@H]2O)c1` [NADP^+], the Kd [1] is reported as 3.7 µM.

For `NC(=O)C1=CN([C@@H]2O[C@H](COP(=O)(O)OP(=O)(O)OC[C@H]3O[C@@H](n4cnc5c(N)ncnc54)[C@H](OP(=O)(O)O)[C@@H]3O)[C@@H](O)[C@H]2O)C=CC1` [NADPH], the Kd [2] was 51.8 µM and the Kd [3] was 0.3 µM.

B1: human flavin-containing monooxygenase 3 (hFMO3), N61S variant (Homo sapiens; N61S) (protein)
chain: GKKVAIIGAGVSGLASIRSCLEEGLEPTCFEKSNDIGGLWKFSDHAEEGRASIYKSVFSSSSKEMMCFPDFPFPDDFPNFMHNSKIQEYIIAFAKEKNLLKYIQFKTFVSSVNKHPDFATTGQWDVTTERDGKKESAVFDAVMVCSGHHVYPNLPKESFPGLNHFKGKCFHSRDYKEPGVFNGKRVLVVGLGNSGCDIATELSRTAEQVMISSRSGSWVMSRVWDNGYPWDMLLVTRFGTFLKNNLPTAISDWLYVKQMNARFKHENYGLMPLNGVLRKEPVFNDELPASILCGIVSVKPNVKEFTETSAIFEDGTIFEGIDCVIFATGYSFAYPFLDESIIKSRNNEIILFKGVFPPLLEKSTIAVIGFVQSLGAAIPTVDLQSRWAAQVIKGTCTLPSMEDMMNDINEKMEKKRKWFGKSETIQTDYIVYMDELSSFIGAKPNIPWLFLTDPKLAMEVYFGPCSPYQFRLVGPGQWPGARNAILTQWDRSLKPMQTRVVGRLQKPCFFFHWLKLFAIPILLIAVFLVLT
With B1 the Km (purified protein [4]) was 8652.1 ± 351.6 µM, the kcat (purified protein [4]) was 0.118 s⁻¹ and the kcat/Km (purified protein [4]) was 13.3 M⁻¹ s⁻¹. The Km (purified protein [5]) was 417.3 ± 74.6 µM, the kcat (purified protein [5]) was 0.0333 s⁻¹ and the kcat/Km (purified protein [5]) was 83.3 M⁻¹ s⁻¹. For the same molecule, the Km (purified protein [6]) was 14.8 ± 3.4 µM, the kcat (purified protein [6]) was 0.00733 s⁻¹ and the kcat/Km (purified protein [6]) was 500 M⁻¹ s⁻¹.

B2: human flavin-containing monooxygenase 3 (hFMO3), wild type (Homo sapiens) (protein)
chain: GKKVAIIGAGVSGLASIRSCLEEGLEPTCFEKSNDIGGLWKFSDHAEEGRASIYKSVFSNSSKEMMCFPDFPFPDDFPNFMHNSKIQEYIIAFAKEKNLLKYIQFKTFVSSVNKHPDFATTGQWDVTTERDGKKESAVFDAVMVCSGHHVYPNLPKESFPGLNHFKGKCFHSRDYKEPGVFNGKRVLVVGLGNSGCDIATELSRTAEQVMISSRSGSWVMSRVWDNGYPWDMLLVTRFGTFLKNNLPTAISDWLYVKQMNARFKHENYGLMPLNGVLRKEPVFNDELPASILCGIVSVKPNVKEFTETSAIFEDGTIFEGIDCVIFATGYSFAYPFLDESIIKSRNNEIILFKGVFPPLLEKSTIAVIGFVQSLGAAIPTVDLQSRWAAQVIKGTCTLPSMEDMMNDINEKMEKKRKWFGKSETIQTDYIVYMDELSSFIGAKPNIPWLFLTDPKLAMEVYFGPCSPYQFRLVGPGQWPGARNAILTQWDRSLKPMQTRVVGRLQKPCFFFHWLKLFAIPILLIAVFLVLT
For B2, the Km (purified protein [7]) was 21.7 ± 4.6 µM, the kcat (purified protein [7]) was 0.045 ± 0.00333 s⁻¹ and the kcat/Km (purified protein [7]) was 2000 M⁻¹ s⁻¹. It also gave a Km (purified protein [4]) of 14.9 ± 2.0 µM, a kcat (purified protein [4]) of 0.14 s⁻¹ and a kcat/Km (purified protein [4]) of 9330 M⁻¹ s⁻¹.
